Reference: patent US20200405841A1 (GlaxoSmithKline, published 2020)

Legend:
[1] = biological target: UspA2H of Moraxella catarrhalis UK isolate 415 (AERIS study) (Moraxella catarrhalis); assay: cell-based or functional assay
[2] = biological target: UspA1 of Moraxella catarrhalis strain ATCC 43617 (Moraxella catarrhalis); assay: cell-based or functional assay
[3] = biological target: UspA2H of Moraxella catarrhalis UK isolate 296 (AERIS study) (Moraxella catarrhalis); assay: cell-based or functional assay
[4] = biological target: T1, UspA2 of Moraxella catarrhalis Dutch isolate F10 (Moraxella catarrhalis); assay: cell-based or functional assay
T1 chain: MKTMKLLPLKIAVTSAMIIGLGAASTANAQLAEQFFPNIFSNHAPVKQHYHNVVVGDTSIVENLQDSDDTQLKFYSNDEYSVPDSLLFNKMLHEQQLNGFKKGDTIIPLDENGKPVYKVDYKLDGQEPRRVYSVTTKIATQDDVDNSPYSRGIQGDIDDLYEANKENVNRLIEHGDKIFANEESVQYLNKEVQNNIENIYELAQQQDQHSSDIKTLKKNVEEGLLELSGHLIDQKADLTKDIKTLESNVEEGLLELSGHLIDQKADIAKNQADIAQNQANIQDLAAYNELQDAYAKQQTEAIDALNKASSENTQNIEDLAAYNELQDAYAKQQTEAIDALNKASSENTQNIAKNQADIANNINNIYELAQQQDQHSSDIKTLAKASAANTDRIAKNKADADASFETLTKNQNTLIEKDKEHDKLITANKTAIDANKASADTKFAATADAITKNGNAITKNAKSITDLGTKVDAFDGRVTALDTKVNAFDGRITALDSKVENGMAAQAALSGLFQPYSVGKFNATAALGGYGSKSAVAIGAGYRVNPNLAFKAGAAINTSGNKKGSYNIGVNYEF

[5] = biological target: T2, UspA2 of Moraxella catarrhalis strain ATCC 25238 (Moraxella catarrhalis); assay: cell-based or functional assay
T2 chain: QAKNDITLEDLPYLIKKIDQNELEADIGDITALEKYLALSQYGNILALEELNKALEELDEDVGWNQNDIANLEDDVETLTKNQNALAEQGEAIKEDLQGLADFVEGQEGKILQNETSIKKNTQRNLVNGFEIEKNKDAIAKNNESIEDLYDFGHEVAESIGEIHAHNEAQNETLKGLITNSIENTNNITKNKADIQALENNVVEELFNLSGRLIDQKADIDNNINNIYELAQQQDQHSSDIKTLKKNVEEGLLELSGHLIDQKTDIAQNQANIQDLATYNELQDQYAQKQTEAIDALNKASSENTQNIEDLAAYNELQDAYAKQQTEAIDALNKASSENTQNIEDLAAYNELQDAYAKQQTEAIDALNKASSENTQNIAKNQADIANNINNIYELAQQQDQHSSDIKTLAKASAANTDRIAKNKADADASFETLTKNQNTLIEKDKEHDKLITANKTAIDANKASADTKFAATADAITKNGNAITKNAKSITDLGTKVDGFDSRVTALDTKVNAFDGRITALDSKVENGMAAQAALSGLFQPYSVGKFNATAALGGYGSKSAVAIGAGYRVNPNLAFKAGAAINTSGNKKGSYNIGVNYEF

[6] = biological target: UspA2H of Moraxella catarrhalis UK isolate 193 (AERIS study) (Moraxella catarrhalis); assay: cell-based or functional assay
[7] = biological target: UspA2H of Moraxella catarrhalis UK isolate 268 (AERIS study) (Moraxella catarrhalis); assay: cell-based or functional assay
[8] = biological target: UspA2H of Moraxella catarrhalis UK isolate 240 (AERIS study) (Moraxella catarrhalis); assay: cell-based or functional assay
[9] = biological target: UspA2 of Moraxella catarrhalis Denmark isolate BBH18 (Moraxella catarrhalis); assay: cell-based or functional assay
[10] = biological target: T3, recombinant soluble UspA2 (SEQ ID NO: 53) (Moraxella catarrhalis); assay: negative-stain electron microscopy of the complex
T3 construct: also called MC-009; soluble UspA2 recombinant protein
T3 chain: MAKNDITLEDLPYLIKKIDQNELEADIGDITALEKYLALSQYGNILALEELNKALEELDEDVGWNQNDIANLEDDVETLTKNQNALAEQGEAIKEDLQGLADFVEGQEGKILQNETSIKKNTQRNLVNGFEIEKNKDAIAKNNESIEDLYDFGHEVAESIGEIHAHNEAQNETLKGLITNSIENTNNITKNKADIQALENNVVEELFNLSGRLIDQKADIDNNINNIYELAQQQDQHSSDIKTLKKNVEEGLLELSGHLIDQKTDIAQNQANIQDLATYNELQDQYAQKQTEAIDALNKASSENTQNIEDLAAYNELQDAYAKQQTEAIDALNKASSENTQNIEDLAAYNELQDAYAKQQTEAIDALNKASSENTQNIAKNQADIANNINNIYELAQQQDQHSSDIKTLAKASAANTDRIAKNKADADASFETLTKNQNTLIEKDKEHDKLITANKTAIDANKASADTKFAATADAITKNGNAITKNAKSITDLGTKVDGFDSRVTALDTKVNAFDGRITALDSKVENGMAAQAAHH

B1: FHUSPA2/10 monoclonal antibody (antibody, V domains shown)
VH: EVQLQQSGTVLARPGASVKMSCKASGYSFTSYWMHWVKQRPGQGLEWIGAIYPGNSDTSYNQKFKGKAKLTAVTSASTAYMELSNLTNEDSAVYSCTLLRFLDAYWGQGTLVTVSA
VL: QIVLSQSPAILSASPGEKVTMTCRASSSVSYMHWYQQKPGSSPKPWIYATSNLASGVPARFSGSGSGTSYSLTISRVEAEDAATYYCQQWSSNPPTFGGGSKLEIK
notes: Hybridoma-secreted mouse monoclonal antibody; Isotype confirmed as IgG2a, light chain of kappa class; also called FHUSPA2/10 mAb; anti-UspA2 monoclonal antibody FHUSPA2/10
B1 was tested, and the “bactericidal activity (mid-point titer)” value [1] was 256000 reciprocal dilution inducing 50% of killing, the “bactericidal activity (mid-point titer)” value [2] was < 100 reciprocal dilution inducing 50% of killing and the “bactericidal activity (mid-point titer)” value [3] was 114000 reciprocal dilution inducing 50% of killing. The “bactericidal activity (mid-point titer)” value [4] was 528000 reciprocal dilution inducing 50% of killing, the “bactericidal activity (mid-point titer)” value [5] was 1.88e+06 reciprocal dilution inducing 50% of killing and the “bactericidal activity (mid-point titer)” value [6] was > 640000 reciprocal dilution inducing 50% of killing. The “bactericidal activity (mid-point titer)” value [7] was > 384000 reciprocal dilution inducing 50% of killing, the “bactericidal activity (mid-point titer)” value [8] was > 25600 reciprocal dilution inducing 50% of killing and the “bactericidal activity (mid-point titer)” value [9] was 386000 reciprocal dilution inducing 50% of killing. B1: binds [10].
